{"source": "patent US20220031857A1", "key": {"[1]": {"biological_target": "recombinant mouse TfR1 (transferrin receptor 1) (mouse) (UniProt Q62351)", "sequence (Q62351 89-763 limits assumed)": "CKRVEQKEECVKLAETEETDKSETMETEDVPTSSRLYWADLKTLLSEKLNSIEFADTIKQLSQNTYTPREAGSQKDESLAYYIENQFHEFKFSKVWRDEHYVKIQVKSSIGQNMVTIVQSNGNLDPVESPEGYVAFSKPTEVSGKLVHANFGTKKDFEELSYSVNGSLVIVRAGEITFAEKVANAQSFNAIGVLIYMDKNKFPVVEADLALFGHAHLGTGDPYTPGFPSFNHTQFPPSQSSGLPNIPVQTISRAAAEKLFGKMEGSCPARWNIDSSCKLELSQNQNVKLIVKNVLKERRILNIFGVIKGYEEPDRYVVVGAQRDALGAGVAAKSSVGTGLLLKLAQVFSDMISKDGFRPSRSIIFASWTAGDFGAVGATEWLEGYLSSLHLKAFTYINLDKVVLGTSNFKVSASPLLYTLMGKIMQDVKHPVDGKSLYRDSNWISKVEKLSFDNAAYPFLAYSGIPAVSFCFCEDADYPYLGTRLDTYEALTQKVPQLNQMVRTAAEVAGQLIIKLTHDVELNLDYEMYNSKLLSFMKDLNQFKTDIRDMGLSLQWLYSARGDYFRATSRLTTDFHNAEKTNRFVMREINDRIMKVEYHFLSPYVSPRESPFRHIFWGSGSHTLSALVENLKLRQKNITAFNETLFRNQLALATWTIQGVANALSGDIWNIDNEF", "assay": "Octet, mouse TfR1 on anti-His biosensors, analyte 10 nM, PBS pH 6.0"}, "[2]": {"biological_target": "recombinant mouse TfR1 (transferrin receptor 1) (mouse) (UniProt Q62351)", "assay": "Octet, mouse TfR1 on anti-His biosensors, analyte 10 nM, PBS pH 7.2"}, "[3]": {"biological_target": "recombinant mouse TfR1 (transferrin receptor 1) (mouse) (UniProt Q62351)", "assay": "Octet, mouse TfR1 immobilised on biosensors; row buffer (no first antibody), column 8D3"}}, "data": [{"binder": "8D3 monoclonal antibody to mouse TfR (antibody, from another filing, V domains shown) VH: EVQLVESGGGLVQPGNSLTLSCVASGFTFSNYGMHWIRQAPKKGLEWIAMIYYDSSKMNYADTVKGRFTISRDNSKNTLYLEMNSLRSEDTAMYYCAVPTSHYVVDVWGQGVSVTVSS VL: DIQMTQSPASLSASLEEIVTITCQASQDIGNWLAWYQQKPGKSPQLLIYGATSLADGVPSRFSGSRSGTQFSLKISRVQVEDIGIYYCLQAYNTPWTFGGGTKLELK", "values": [{"measurement": "Kd", "setting": "[1]", "value": 0.247, "unit": "nM"}, {"measurement": "koff", "setting": "[1]", "value": 0.000126, "unit": "s⁻¹"}, {"measurement": "kon", "setting": "[1]", "value": 511000, "unit": "M⁻¹ s⁻¹"}, {"measurement": "Kd", "setting": "[2]", "value": 0.221, "unit": "nM"}, {"measurement": "koff", "setting": "[2]", "value": 0.000131, "unit": "s⁻¹"}, {"measurement": "kon", "setting": "[2]", "value": 591000, "unit": "M⁻¹ s⁻¹"}, {"measurement": "Octet signal as second antibody after buffer", "setting": "[3]", "value": 0.33}]}]}
